Molecular target: T1, Abp1 SH3 (ABP1_YEAST), P15891
T1 chain: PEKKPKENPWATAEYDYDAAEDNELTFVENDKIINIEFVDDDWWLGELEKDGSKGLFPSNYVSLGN
Experiment: SPOT array

SLKLNSKPVELKP [YJL041W 617-629]
normalised SPOT signal, Boehringer light units (BLU); mean over the file's lines of this peptide: 27.9

SLLEFPLTDLPKKP [YLR047C 278-291]
normalised SPOT signal, Boehringer light units (BLU); mean over the file's lines of this peptide: 118

SLPTSSSAKAPLRP [YOR266W 165-178]
normalised SPOT signal, Boehringer light units (BLU); mean over the file's lines of this peptide: 37.9

SLTIPFLPVLPQKP [YDR178W 31-44]
normalised SPOT signal, Boehringer light units (BLU); mean over the file's lines of this peptide: 129

SMTTRSSHNDPIKP [YAL047C 42-55]
normalised SPOT signal, Boehringer light units (BLU); mean over the file's lines of this peptide: 205

SNASVADAKEPSRP [YJR138W 1326-1339]
normalised SPOT signal, Boehringer light units (BLU); mean over the file's lines of this peptide: 46

SNSSTAGLVAPLKP [YDR158W 154-167]
normalised SPOT signal, Boehringer light units (BLU); mean over the file's lines of this peptide: 61.1

SNDDVEFYYPPVKP [YLR155C 216-229]
normalised SPOT signal, Boehringer light units (BLU); mean over the file's lines of this peptide: 92.8

SNGAIQTGLQPLKP [YOR329C 434-447]
normalised SPOT signal, Boehringer light units (BLU); mean over the file's lines of this peptide: 70.4

SNGLLLEPSALRP [YOR023C 198-210]
normalised SPOT signal, Boehringer light units (BLU); mean over the file's lines of this peptide: 0

SNIVSILPEGAKP [YKL015W 850-862]
normalised SPOT signal, Boehringer light units (BLU); mean over the file's lines of this peptide: 106

SNKTHTEQNNPPKP [YOR290C 408-421]
normalised SPOT signal, Boehringer light units (BLU); mean over the file's lines of this peptide: 83.8

SNMTFQYPGTTKP [YNL014W 670-682]
normalised SPOT signal, Boehringer light units (BLU); mean over the file's lines of this peptide: 144

SNNVYSSEYHPIKP [YDL180W 227-240]
normalised SPOT signal, Boehringer light units (BLU); mean over the file's lines of this peptide: 12.1

SNPAYDGPLFSKP [YNL307C 267-279]
normalised SPOT signal, Boehringer light units (BLU); mean over the file's lines of this peptide: 95.6

SNRATLLTTLPMKP [YIL056W 426-439]
normalised SPOT signal, Boehringer light units (BLU); mean over the file's lines of this peptide: 243

SNYITDRPFTRKP [YPR008W 490-502]
normalised SPOT signal, Boehringer light units (BLU); mean over the file's lines of this peptide: 409

SPAKQKTPPSPAKP [YBR102C 22-35]
normalised SPOT signal, Boehringer light units (BLU); mean over the file's lines of this peptide: 54.6

SPDQWSVPAGHRP [YPR181C 246-258]
normalised SPOT signal, Boehringer light units (BLU); mean over the file's lines of this peptide: 65.3

SPEENTDFALPMKP [YDR273W 125-138]
normalised SPOT signal, Boehringer light units (BLU); mean over the file's lines of this peptide: 98.8

SPFPADTPSSNRP [YGL201C 3-15]
normalised SPOT signal, Boehringer light units (BLU); mean over the file's lines of this peptide: 114

SPMLDAAPPTTKP [YER116C 142-154]
normalised SPOT signal, Boehringer light units (BLU); mean over the file's lines of this peptide: 158

SPMRGVAPTASKP [YPL137C 250-262]
normalised SPOT signal, Boehringer light units (BLU); mean over the file's lines of this peptide: 2700
